Assay: soluble on expression in E. coli; label from the status in PepcDB or PDB records

Question: With “MSLKKITGDDVLIPLETPESMHKEYIQNYLNLTRNTGNLMLFAGDQKIEHLNEDFYGKDISKDDADPEHLFKIAENSKIGGFAVQFGLLSRYGRDHKDINYIVKLNSKTNLVDTNQKDPLSRALLDINDILEFKKNSGINIVGVGYTIYLGSEYESEMLSEASKIIYEAHKGGLVVILWIYPRGKAVKDEKDSELISGATGVAACLGADFVKVNYPKSENPAESFKEAVMAAGRTKVVCAGGSSTDIESFLKQLYEQIHISGASGNATGRNIHQKSLSDAVSMCNAIYAITIDGKTVSEALNIYNERKSEGHHHHHH” as the sequence, how does the “soluble on expression in E. coli” value read?
Answer: Its value is “soluble”.

Question: For “MDGAATKFFRPWESHGSYHHSLPSISPPDSPASTSASSSSSSIGANELTTKRRKCERCTCPNCKAIKHGDRGSQHTHLCSVPGCGKTYKKTSHLRAHLRKHTGDRPFVCDWFDCGKRFDRSDQLIRHKRTHTKEYRFACKFCIRQFSRSDHLQQHLTSVHNIVVVD”, which “soluble on expression in E. coli” value is on record?
Answer: The value was “not soluble”.

Question: Which “soluble on expression in E. coli” value does the source give for “MGSDKIHHHHHHMIKLKKVLVLGGTRFFGKHLVEALLQDGHDVTIATRGITEDSFGSRVKRLIVDREDEKQLAERLADKSYDIVYDNLCYSSNAAKIICEVLRGKTTKYVMTSSMAVYEPALSLSEEDFDPYEYAIAYGDRNDFNYGEGKRLAEAVVFQQATFPVVAVRFPVVIGENDYTKRLQFYVEHIVREEPVAVNHLDGKLSFIHEEEAGEFLAWCGMKDIEGPINACSNGVVSTREIIHFIEENTGIKSLIQEVGDHVAPYNEVTNCTLHNGKANELGFPFRGLKIEIEKVLCYYIHAMK” here?
Answer: Its value is “not soluble”.

Question: For “MGSDKIHHHHHHMHEPVTRILVVATNAPVPGLVAAVKQGFHQRVDYLELAERFDNRHVDYGIVRPNRMLERLEGITRFDLRLASQVNQIVRSARYQAVISLSERVGIPLALMLPQTVRHLVIFHHGMSARKLQLIRTLHLQHRWDIVAAISEAEAKGMRQALGLPAERVVALHTPVDTAFYQPQPGRQQASVVQSLGLSHRDYPTLIRAMRRLPHIPCHLRVGSSWISGRSGHEREVLPANISLQPFVPPVQLRTCYQQSRIVVVPIKASTQWSAGCTSVQAAQAMGRPVIATRRPGLAEYVDEGRTALLVEPGDADGMADAIATLWENPDRAERMGQAGRQLMEERFTIEQWLDRVVELTHKMMDWPARRSTSTMTGSAV”, which “soluble on expression in E. coli” value is on record?
Answer: Its value is “not soluble”.

Question: Which “soluble on expression in E. coli” value does the source give for “MGSDKIHHHHHHMMGGEFTLTEREAEYLFRIIDSSINIFRRHQFFLWAQGELQGLLPHGMLICLFDEGNGQAVNIERFSRTDMDEIRFSELCRPDGGIVFRAMSAWSAGKNQPLLVCPNNSHTPTYKRFSNDLKRENLQRIAAHGMFDTNGRTTCFFTFTQISAALSERHAYFLELLMPHMHMALVRMLFHERHHKQGAVGERSRKLITDRETEILRHVQAGKSNHEIAQLLYISPLTVKNHIQKILKKLDVNNRAHAVAKAMALKITL” here?
Answer: The value was “not soluble”.

Question: With “MKSHDLKKALCQWTAMLALVVSGAVWAANGVDFSQSPEVSGTQEGAIRMPKEQDRMPLNYVNQPPMIPHSVEGYQVTTNTNRCLQCHGVESYRTTGAPRISPTHFMDSDGKVGAEVAPRRYFCLQCHVPQADTAPIVGNTFTPSKGYGK” as the sequence, how does the “soluble on expression in E. coli” value read?
Answer: Its value is “soluble”.

Question: For “MYQEIKGVRVWGDPIENAVDQAVTCAQHGDVEQVLLMADHHKGYSQPVGGVVVYRNQISPSGVGYDIACGNKAVKTNVKYVDIKDQLSKIMDELAQSISFGVGRSNREKVEHDLFDDSDWSVYQEIGKQEHDNLKTLAKKQLGTVGSGNHFVDLFVEEATGDVWVANHFGSRGFGHKTASGFMNLAKGVKFSDKVKGERMEDAPTLLDLDSEIGDMYYRAMQLAGKYAYAGRDYVIQKVLDILQAEAVFSVHNHHNFAWKETHNGEEYVIVRKGATPSAPNQWGFIGGSMGDISVIVRGVDSEENRDAFYSTVHGAGRIMSRTEAAGKMNWKTRTRSGGKITPDQMKQAIKEYGVELRGGGTDESPFVYKNLADVLEAHKQTLSIEHVLKPIGVCMAGEGEFDPYKDMAGDPLEHHHHHH”, which “soluble on expression in E. coli” value is on record?
Answer: Its value is “soluble”.

Question: With “PGTESTFSNCYALNVEVVSLDSGDQAVLGGFVGQVSANFIAKHCYVSAKVTGGKNPGAFVGMTADESMNCKYDGCFYNNEQNP” as the sequence, how does the “soluble on expression in E. coli” value read?
Answer: The value was “not soluble”.

Question: For “MEELFCIGCGIQIQTEDKEKAGFTPAAALKKGMETGELYCQRCFRLRHYNEITDVHITDDEFLRLLHEVGDSDALVVNVIDIFDFNGSIIPGLSRFISGNDVLLVGNKKDILPKSVKDGKVTQWLTERAHEEGLRPLDVMLTSAQNKYAIKDLIGRINELRNGRDVYVVGVTNVGKSTLINAIIQEITGNKDVITTSRFPGTTLDKIEIPLDDGTFIFDTPGIIHRHQMAHYLSPKELKIVSPKKEIKPKTYQLNPEQTLFLGGLARFDFINGERQGFTAFFDNQLELHRTKLAGADAFYDKHVGTLLTPPDKKELTAFPKLVRHEFTIDQKMDIVFSGLGWIRVNGQKDSKAIVAAWAPEGVAVIVRKAII”, which “soluble on expression in E. coli” value is on record?
Answer: Its value is “soluble”.

Question: Which “soluble on expression in E. coli” value does the source give for “MGSDKIHHHHHHLQFAVLSSGSAGNCSLLMTDQHKILMDAGLSGKKTKELLAKVGVAIEDLDMVFLSHDHGDHSGGMGVLMRRYPQLNAFSNTVTWKYLEETGKIGCLPKDQINVIEPGQTKCYGDLEVTAFATSHDAAQPQYYVFSSGGKRLACLTDTGYVSEEVEYEIQDADAYLLEFNYDDLMLRSGPYPWSLQQRVRSDHGHLSNEQAAETLARVISSKTKHVFMAHRSQQNNLNYLARDVAEEVLAARDADVASDLELHDTEPMTPSSLINL” here?
Answer: The value was “not soluble”.

Question: Which “soluble on expression in E. coli” value does the source give for “MAHHHHHHMALSSSGSAALGDRIARAAAAAPQWTAQQRCFRQLLKSLRGAYFHDRSKLFWARHRILVEFYKYSRVEEERDVLLLVGIGNEIATFVAEYMKVDVGAIMEHNKKIQSLPVAKAKRYREEYLLHEKQHESWCKQKIRLMMDRRPPPPYPFS” here?
Answer: The value was “not soluble”.

Question: With “GPGSMRLVDLSLPLYDGMPVYDGDPPVHVTKVCTREKDGWEVRHLQMGSHTGTHVDAPAHMHEDGSNLDEVPLTRFCGPAVVVKVADSSFPPNKGLLFYEAVPADCVPRIVAANAPFVGGPLEEKAERLLLGCGIITYTGLVNVEQLIGESFTFYGLPLRIRGGDGSPVRAVAVMDDK” as the sequence, how does the “soluble on expression in E. coli” value read?
Answer: The value was “soluble”.

Question: With “NVVETKALFVSTNDLARRLQKLNNEQKIQSNRLKTTIENIPSAILMIDRNGKIVVANKAYYEQFNISHNIEQVGYHGYVNTEIEQLILESFKVEKPIYEQLEVAINQVHAKYFDISCVPILTRSQKSLQGILVVMHD” as the sequence, how does the “soluble on expression in E. coli” value read?
Answer: The value was “not soluble”.

Question: For “MSLDSGRNGGGPSVFRRDLLRSIGAAGLAGLAGCGGSEGVTDGDGTPAPTPVGNFPVSGDSVTFGFNVASSGAYSTAGKQEIRGFKLAVKHINNGGGWVTSEKYNSPLDGDGLLGKDVEFVVEDTGGSSDTARSNAQRLVDGEEVIMLAGGTSSSAGLANQEVAAQNQVIYMATMANTNSLTGADCNRYSFREMFNNHMAAEALAPALSDEFGKNANYVKIFQDNDWGQTLRDDMDAALGNVGWAPVWDTTAQVGTSDYSQYAADIKSVDFDVIVLGLGGLDAVNALRAFRDEFPESNIVLPMASREIAETAGGAIEGVIGTVAWSRAINSPLSNTFRETFREEYGSSTGSSKSAAPSGAAHIAYTQALQYASAVERAGTFNPIDVIGALEGHEYDAGLGPQTLRACDHQAMRQVPVVRGKSEIQQSYGTYYDLIGEPADVQYACDSGPAANCSLGGSEGHHHHHH”, which “soluble on expression in E. coli” value is on record?
Answer: The value was “not soluble”.

Question: Which “soluble on expression in E. coli” value does the source give for “RLAVGDEITAAGELLAGGKILAIKGIGGFHLAVDASNEAAVRRLRSRKGREEKPFAVMVRDLAAARALCDISPEEKAALASPQAPIVLLRARQGLSLAPSIAPGNDRLGVMLPYSPLHWLLLREGPKVLVMTSANFSEEPLVADNAEALERLAGIADAFLMHDRPIARRCDDSVVMSMAGAVRLIRRSRGYAPAPVRLAES” here?
Answer: Its value is “not soluble”.

Question: For “GMELPVVVQQALGDNAPGVSFRSVSQIDTGHLLRMVLLSDDQGNLQAICRRNDMLDLEALNKRLGRDLRMMQRREQVRVRQKAGLQELPALPSLTGWPTVVDRRVDELEAVALELGEQDLGLMMPAEDFRQLTAKAARHDFAVDTANISVNLDNHAADRDQLHSAIKRFTGLRIQQRLEDTLELPPLPETAQRIIHLRVNPNAVMGDLVDVVESDPSLAAQVVSWASSSFYAAAGRVHSVHDAVSRVLGFDLVMNLAMGLALGRALKHPQDHPDGYVDYWQQAIWQAQSAGILASMMPRGQRPLFGLAYLAGLLHNFGHLVLAQVFPPHFKLVCRSLEVSPHIDSSVIEHYLLGITREQIAAQLMENWGMPDEVTLAIRYQKNPAYDGPHNVYARLLWLGRQLLTERGVALGAGESATQAVYDELGLDRELVQEQFDELVRRKDSIMAMAGMMSQGG”, which “soluble on expression in E. coli” value is on record?
Answer: Its value is “soluble”.

Question: Which “soluble on expression in E. coli” value does the source give for “MSLLRIEPDLSHFKAGTYRFTPQMTVREMLKLLESGKEAQFPLRLVEGMRLSDYLKQLREAPYIKHTLSDDKYATVAQALELENPEWIEGWFWPDTWMYTANTTDVALLKRAHKKMVKAVDSAWEGRADGLPYKDKNQLVTMASIIEKETAVASERDQVASVFINRLRIGMRLQTDPTVIYGMGERYNGKLSRADLETPTAYNTYTITGLPPGAIATPGADSLKAAAHPAKTPYLYFVADGKGGHTFNTNLASHNKSVQDYLKVLKEKNAQEGHHHHHH” here?
Answer: Its value is “soluble”.

Question: With “MNYSLEDLPNSGKNPRVYMDIVLNNEIIGRLQIKLFRDAFPAGVENFVQLTNGKTYRVNSNGTGKYKYNRHINRTYEGCKFHNVLHNNYIVSGDIYNSNGSSAGTVYCDEPIPPVFGDYFYPHESKGLLSLVPYTDESGNRYYDSTFMITLDDIRPSNVLDELDRDQVVIGQVYGGLDVLDKINSMIKPYAGRKYPTFSIGKCGAYLDSSQAQRKRPVNVNGTKRFLNKPTRVN” as the sequence, how does the “soluble on expression in E. coli” value read?
Answer: The value was “soluble”.

Question: Which “soluble on expression in E. coli” value does the source give for “MGHHHHHHSHMGTVKQLLLFSETEGNPCFLDICGNFLVVGTDLAHFKSFDLSRREAKAHCSCRSLAELVPGVGGIASLRCSSSGSTISILPSKADNSPDSKICFYDVEMDTVTVFDFKTGQIDRRETLSFNEQETNKSHLFVDEGLKNYVPVNHFWDQSEPRLFVCEAVQETPRSQP” here?
Answer: Its value is “soluble”.

Question: With “MKVPEAAISRLITYLRILEELEAQGVHRTSSEQLGELAQVTAFQVRKDLSYFGSYGTRGVGYTVPVLKRELRHILGLNRKWGLCIVGMGRLGSALADYPGFGESFELRGFFDVDPEKVGRPVRGGVIEHVDLLPQRVPGRIEIALLTVPREAAQKAADLLVAAGIKGILNFAPVVLEVPKEVAVENVDFLAGLTRLSFAILNPKWREEMMG” as the sequence, how does the “soluble on expression in E. coli” value read?
Answer: Its value is “soluble”.

Question: Which “soluble on expression in E. coli” value does the source give for “GSDSLIRDLSGLSQKMVQTLLEQIRSNYDDYLTFSNTYTDEENETLINLEKTQSDLQKFMTQLDHLIKDDISNTQEIIKDVLEYLKKLDEIYGSLRNHSQLTEALSLGKRLSKSLHEMCGIEPLEEEICSGLIEQLYKLITASRRILESCADSNSPYIHHLRNDYQDLLQEFQISLKILTEKCLENPSSLQNLSLTLVSIIKTA” here?
Answer: Its value is “soluble”.

Question: Which “soluble on expression in E. coli” value does the source give for “MSTRKLNKVMVQPVNLIFRYLQNRTRVQIWLYEDVTHRLEGYIIGFDEFMNVVFDEAEEVNMKTKGRNKIGRILLKGDNITLIHAAQQEA” here?
Answer: Its value is “not soluble”.

Question: For “MSQVSIIIPTLNEAASLGRTLRQLTLLNPPAKEVIVVDGGSEDETIAIAKQNFESFRQATGVQVIFCERRGRSVQMNYGALSATGDILCFLHADTWVPDDLVAVIEKTLAETKVSCGGFISLMTGSQTTRWGISLHNYLKTYYAPLLFKPHLFFQGLRLLFGDQVMFCRRNDFWDCGGFNEELPIMEDGDLCLKLVQKGRIALVNRIVQSSDRRVARWGSWKATAIYLYIGVLWGIGVDANYLKQFYQDIRLEHHHHHH”, which “soluble on expression in E. coli” value is on record?
Answer: The value was “soluble”.

From the DeepSol protein solubility set
